Test [1] addresses S-100b. As to the kind of experiment: ELISA saturation curves with Scatchard analysis (Figures 10 and 11): S-100b coated at 500 and 100 ng/well, sRAGE about 23 to 470 nM or 5 to 76 nM, low affinity site. For orientation: ELISA stands for enzyme-linked immunosorbent assay.
Test [2] concerns the target S-100b. As to the kind of experiment: ELISA: S-100b coated at 500 ng/well, sRAGE at 1.0 x 10^-4 mg/ml, detected with anti-sRAGE antibody complex.
Test [3] addresses S-100b. As to the kind of experiment: ELISA saturation curve with Scatchard analysis (Figure 8): S-100b coated at 50 ng/well, sRAGE about 0.3 to 10 nM, high affinity component.
Test [4] deals with S-100b. Briefly: ELISA saturation curve with Scatchard analysis (Figure 9): S-100b coated at 100 ng/well, sRAGE about 0.3 to 10 nM, high affinity component.
The target in test [5] is S-100b. Briefly: ELISA: 88 wells coated with S-100b at 500 ng/well, sRAGE at 2.2 x 10^-4 mg/ml, polyclonal anti-sRAGE detection (Figure 7).

Drawing on patent EP1724589A2, this text covers Kd, OD (maximal signal) and average OD405 for one substance.

By Kd is commonly meant the free concentration of one partner at which half of the binding sites on the other are occupied at equilibrium, for simple one-to-one binding. High values mean weaker binding, low ones tighter binding. For the substance “soluble RAGE (sRAGE), the soluble, extracellular portion of human Receptor for Advanced Glycated Endproducts (from UniProt Q15109 23-339)”, the Kd stood at 60 nM with S-100b [1], 6 nM with S-100b [3] and 2 nM with S-100b [4]. In the test with S-100b [2], the OD (maximal signal) came to 1.06 OD. This substance yielded an average OD405 with S-100b [5] of 0.705 OD405.
